B1: EcXA186: antisense clone insert to E. coli yagG (nucleic acid, listed as Escherichia coli)
antisense: AGCAAAGCGAGCCGAACATGGTGGCGAGGCTGCCGTAAAGTAAAAACTGGGTCGCCAACTCCGGGTGATCCATCACGTATTTCACGAAGTAGAGCGTCGCCCCGCCGCGCACCACGTTGGAGCAGGTCGCCATCATCTTGAACGCGCACATGATGCGCCACTGGCTGTTGCCCAGC
B2: EcXA179: antisense clone insert to E. coli valV (nucleic acid, listed as Escherichia coli)
antisense: CGAACCAACGACCCCCACCATGTCAAGGTGGTGCTCTAACCAACTGAGCTATGAACGCAACGTTGTAGGTGACAACGGGGACGAATATTAGCGGCAGAGTGGGAAGGTGGCAAGAGGCAAAACGTAATTTTCTGCGCTATTTCGACCGTTTGCAGAGCTTTTAAGCAAATTGGCTATATTTTGTTGATTTGCAAGGGTGATTTTTATTCAGGATCGCATTTACATCTGATACAACCC
B3: EcXA185: antisense clone insert to E. coli rpsK (nucleic acid, listed as Escherichia coli)
antisense: CCCTGACGATCAGTGATAGTCACGATGGTGTTGTTGAAAGAAGCATGGATATGAGCCACGCCGTCAG
B4: EcXA187: antisense clone insert to E. coli b2271 (nucleic acid, listed as Escherichia coli)
antisense: TNNCANNNNCNNNNNNNNNNNNNNNNCNCNNTNCCTAGANTNTCNANGTCTNCNCNCNCNTNNCCNNNCCCTTCNNNNCCNNNNANANGNNCNNCNCCCCCNNNCCCNNTTTTGTTTTGGAAANTCCGTTTCAGGAANAGCTTCTGAATCCCGANCGNTTGATAACTGNNGGCCAGAGTCATAATGCGCACCAATAATAATCAGCGGNCCATCGGCAGGACCATAATCAGCAACAATGNNNNGGTAGGGGCCACCCGTAATGGGGACCGTCCTGCGAGGTAACTCTGGCACCGCTACTGACAAAGACCTCTTTTATATATTCTGCGGGACCTATTCAGATTATCAATATTGTCNGGCACTACGTGGATGCACAAGTTTGTGTAAGATAACGAACTGNTTTTTCTAATTGCTCAGGACTTTGCGTGTCGGGGCCGTTGACGGTAATGCATTGACCCAGGGTTGGTAAAAAATAATCATAGGGAGTAAAAACACAAATAATATAATAAAAGCCAAGATTATTTTTTTCATATGCAAAATTATTAATGGGGTTGCGTTTGGTGAATCATTATNTTGCTATGGGTTTCGATATTGNGATTTTAATTAAAGATTAAGCANGGGATTATACCAAAAGA
modifications: misc_feature (1)...(632): n = A,T,C or G
notes: antisense clone insert to E. coli b2271
B5: EcXA182: antisense clone insert to E. coli tktA (nucleic acid, listed as Escherichia coli)
antisense: TCGCGAACACCGTAGTGGATGTAGTTACCCGCAGCATCTTCGTTGATTGCTTTAGAACCAGACCACAGGGTCAGGTTAGACGGCGCCAGGTCAGCAGAACCGCCGAGGAATTCCGGCAACAGCGGACCGAACGCTTCGAT
B6: EcXA183: antisense clone insert to E. coli ftsI (nucleic acid, listed as Escherichia coli)
antisense: GTTAGTAAAGCCGATGAGGTGAGCAGTCACTTCGCCGGACGGATAGTAACGGCGAGACTCTTCACGCAGATGAATCCCCGGCAGTTTCAGTTTTTTGATGTAGTCCGCCATGTCAGGGTTCACCTGACGCGCCAGATAAATAAAGCGCCCTTTCGGGTTGGCGTTAATGCGGGCTGAAAGCTGATCCAG
B7: EcXA181: antisense clone insert to E. coli ppc (nucleic acid, listed as Escherichia coli)
antisense: CCCGGCTGGGTTTTTTCAAGTTTACGCAGGGGTGCGGGCGATCACTTCCGGGTTGCTGGCAGCTTCGCCTTTCGGCGAAATGCTGTGGT
B8: EcXA178: antisense clone insert to E. coli rpsT (nucleic acid, listed as Escherichia coli)
antisense: CTGGAGATTGAGTAGATATTCTTGTTCAGAATGTATCAGCCCGATGGTTCTACGATTCTTAAGCCACGAAGAGTTCAGATAGTACAACGGCATGTCTCTTTTGACTATCTGGCAACCCGGCAGTGTGTTCTCTCACGCATCACAAAAGCAGCAGGCATAAAAAAACCCGCTTGCGCGGCTTTTTCACAAAGCTTCAGCAAATTGGCGATTAAGCCAGTTTGTTGATCTGTGCAGTCAGGTTAGCCTTATGACGTGCAGCTTTGTTTTTGTGGATCAAACCTTTAGCAGCCTGACGGTCCACGATCGGTTGCATTTCGTT
B9: EcXA184: antisense clone insert to E. coli cysC (nucleic acid, listed as Escherichia coli)
antisense: GCAGTTCACCGGCACGCGCTTTCTTATATAAGCCTTTGGGATCGCGGGCTTCGCAAATCGCCAGCGGCGTATCGACAAACACTTCGATAAAGCGCCCTTCTCCTACGCGTTCGCGAACCATCTGGCGTTCGGCGCGGTGTGGCGAGATAAATGCGGTCAGCACCACCAGTCCGGCTTCAACCATCAAATTCGCCACTTCACCGACGCGACGGATATTCTCTTTACGATCGGCATCGCTAAAACCGAGATCGCTGCATAATCCGTGGCGAACATTGTCGCCATCCAGCAGATACGTACTGACGCCGAGTTTATGTAACGCCTCCTCCAGCGCCCCGGCGACCGTTGAT
B10: EcXA192: antisense clone insert to E. coli rbsC, rpsB (nucleic acid, listed as Escherichia coli)
antisense: AGCGCAACAGCGGAAACCAGGGTAGCCAGTTTTTTCATGTTCATATTCAAGATGTCCTGTAGTCGTTATTACTGCTTTTTGTTGTCTACCAGCACCGCCAGCAAAATCACCACCGCTTTGACGATCATCTGGTAATAGGAGGAAACACCTAACAAATTCAATCCATTATTAAGGAAGCCAAGAATTAATGCGCCGATCAACGTCCCAACAATGCGACCTTT
B11: EcXA180: antisense clone insert to E. coli yjcF (nucleic acid, listed as Escherichia coli)
antisense: TGTGACAGAGTGGTTATCGTTAATCAGGCAAAGAGGGAAAAACATATTATTTAAACCATTATAGCGCATAAAATATCCTTATAATTAACAAGAAAGAAAAGGCATATTCTCTGCATTATCATTTTCTACGACTGTCAAAAATCGCTCATTTTTTAATGAGTTTATTTGTTTAATATTATGGGAAAAGGTGATGCATTTGGGAGAGGAAGAGTATTCCCCGGTCAGACGACCGGGGAAGGGG
B12: EcXA176: antisense clone insert to E. coli yjdH (nucleic acid, listed as Escherichia coli)
antisense: TAGTTATTGGCTGTTTTGAGAATGTAATCTTCCAACTGCTTATAACTCTTCAGATGCAATAATCCGAGAATCACATGCAATTTATTCATAAATTCGTGGGATCGTTCACGAAGTGCGTCAGCATAGTTGACCAGACCGTCGAGTCGCTGCATCAGTTTACGTA

system: Klebsiella pneumoniae; assay: Growth inhibition by induced E. coli antisense RNA in Klebsiella pneumoniae; type: cell-based; design: key: +: a positive in Table V below means that at least 10 fold more cells were required to observe a colony on the induced plate than on the non-induced plate; −: If there was no effect of antisense RNA expression in a microorganism, the clone is minus in Table V below; conditions: antisense RNA expression induced with IPTG, serial dilution plating
Outline: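 An E. coli antisense fragment (b3052 portion), or other E. coli-inhibitory antisense clones, was expressed in each species on IPTG induction (1 mM). Serial 10-fold dilutions were spotted on selective agar with or without IPTG overnight. The score is the log difference in maximal colony-forming dilution, induced vs uninduced (0 = no effect; positive = at least 10-fold).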

Q: With B1 as the molecule, how does the “Sensitivity of K. pneumoniae to antisense nucleic acid (growth inhibition, induced vs. uninduced)” value read?
A: Its value is “−”.

Q: How did the “Sensitivity of K. pneumoniae to antisense nucleic acid (growth inhibition, induced vs. uninduced)” value turn out when B2 was run?
A: The value was “−”.

Q: With B3 as the molecule, how does the “Sensitivity of K. pneumoniae to antisense nucleic acid (growth inhibition, induced vs. uninduced)” value read?
A: Its value is “−”.

Q: For B4, which “Sensitivity of K. pneumoniae to antisense nucleic acid (growth inhibition, induced vs. uninduced)” value is on record?
A: The value was “+ (a positive in Table V below means that at least 10 fold more cells were required to observe a colony on the induced plate than on the non-induced plate)”.

Q: With B5 as the molecule, how does the “Sensitivity of K. pneumoniae to antisense nucleic acid (growth inhibition, induced vs. uninduced)” value read?
A: Its value is “−”.

Q: For B6, which “Sensitivity of K. pneumoniae to antisense nucleic acid (growth inhibition, induced vs. uninduced)” value is on record?
A: Its value is “−”.

Q: B7 was tested. Which “Sensitivity of K. pneumoniae to antisense nucleic acid (growth inhibition, induced vs. uninduced)” value did it give?
A: The value was “−”.

Q: How did the “Sensitivity of K. pneumoniae to antisense nucleic acid (growth inhibition, induced vs. uninduced)” value turn out when B8 was run?
A: Its value is “−”.

Q: For B9, which “Sensitivity of K. pneumoniae to antisense nucleic acid (growth inhibition, induced vs. uninduced)” value is on record?
A: Its value is “−”.

Q: For B10, which “Sensitivity of K. pneumoniae to antisense nucleic acid (growth inhibition, induced vs. uninduced)” value is on record?
A: Its value is “−”.

Q: Which “Sensitivity of K. pneumoniae to antisense nucleic acid (growth inhibition, induced vs. uninduced)” value does the source give for B11 here?
A: Its value is “−”.

Q: With B12 as the molecule, how does the “Sensitivity of K. pneumoniae to antisense nucleic acid (growth inhibition, induced vs. uninduced)” value read?
A: Its value is “−”.

— US20020022718A1, “Genes identified as required for proliferation of E. coli” (priority 1999, published 2002)
